Consider one molecule from US20240293553A1, “P-SELECTIN INHIBITORS AND USES THEREOF” (Beth Israel Deaconess Medical Center, Inc., priority 2021, published 2024).

For this test, the target named is human P-selectin-Ig chimera (human) (UniProt P16109). The experiment in a line: SPR (Biacore): biotinylated ligand on streptavidin chip, P-selectin-Ig flowed at 0.4-100 nM. On the technique in general: Surface plasmon resonance follows binding to a sensor surface in real time, without labels.

Square brackets hold non-standard residues; d marks the D form. Ends that are not written are not given here. F∗ = phenylalanine sulfonate

human P-selectin-Ig chimera (human), sequence (P16109 42-771, change not shown): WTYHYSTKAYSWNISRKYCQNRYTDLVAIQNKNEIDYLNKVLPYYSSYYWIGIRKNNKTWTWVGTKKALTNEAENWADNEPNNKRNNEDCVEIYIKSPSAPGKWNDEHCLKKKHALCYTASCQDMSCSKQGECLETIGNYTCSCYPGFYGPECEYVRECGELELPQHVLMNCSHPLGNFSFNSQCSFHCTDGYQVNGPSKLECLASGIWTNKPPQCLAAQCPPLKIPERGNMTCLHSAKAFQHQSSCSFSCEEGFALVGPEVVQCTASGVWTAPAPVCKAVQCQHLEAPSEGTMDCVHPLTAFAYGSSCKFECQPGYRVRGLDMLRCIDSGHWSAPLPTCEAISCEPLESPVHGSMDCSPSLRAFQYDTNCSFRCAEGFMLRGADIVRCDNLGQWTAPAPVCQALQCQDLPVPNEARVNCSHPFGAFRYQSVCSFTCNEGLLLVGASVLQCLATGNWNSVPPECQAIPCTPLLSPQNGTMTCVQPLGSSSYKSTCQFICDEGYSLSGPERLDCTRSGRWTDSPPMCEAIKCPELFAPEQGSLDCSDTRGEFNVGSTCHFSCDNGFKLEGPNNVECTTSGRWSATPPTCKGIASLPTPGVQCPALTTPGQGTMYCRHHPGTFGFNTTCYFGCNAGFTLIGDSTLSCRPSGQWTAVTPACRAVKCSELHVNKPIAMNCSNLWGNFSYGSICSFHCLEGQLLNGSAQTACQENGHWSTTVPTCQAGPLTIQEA

Consider KE[F∗]E[F∗]LD[F∗]DFLPET(Neu5Acα2‑3Galβ1‑4(Fucα1-3)GlcNAcβ1‑6(Galβ1-3)GalNAcα)EPL [GSnP-6], for which the equilibrium dissociation constant (Kd) – broadly, the free concentration of one partner at which half of the binding sites on the other are occupied at equilibrium, for simple one-to-one binding – is 27 nM. This counts as double-digit nanomolar.
